Legend:
[1] = biological target: Methanospirillum hungatei phosphoribulokinase (MhPRK) (Methanospirillum hungatei); assay: crystal structure; hanging-drop vapour diffusion at 20 °C; 2.5 Å; the asymmetric unit holds two MhPRK protomers (chains A and B) related by approximately two-fold noncrystallographic symmetry
[2] = biological target: T1, M. hungatei RuBisCO (Mh-RuBisCO) (Methanospirillum hungatei, UniProt Q2FSY4); assay: coupled PGK / GAPDH carboxylase assay, NADH at […] nm; turnover only; assay type: biochemical; conditions: 2 mM RuBP, 50 mM NaHCO3, 20 mM MgCl2, pH 8.0, 25 °C, anaerobic
T1 construct: gene rbcL; recombinant in E. coli C43 (DE3), pET-15b, His6 tag cleaved by thrombin

purified protein [3] = substrate: Nc1ncnc2c1ncn2[C@@H]1O[C@H](COP(=O)(O)OP(=O)(O)OP(=O)(O)O)[C@@H](O)[C@H]1O; assay: purified protein; assay type: biochemical, Methanospirillum hungatei; conditions: co-substrate Ru5P (2 mM), 10 mM MgCl2, 100 mM KCl, pH 8.0, 25 °C
purified protein [4] = substrate: O=C(CO)[C@H](O)[C@H](O)COP(=O)(O)O; assay: purified protein; assay type: biochemical, Methanospirillum hungatei; conditions: co-substrate ATP (2 mM), 10 mM MgCl2, 100 mM KCl, pH 8.0, 25 °C
purified protein [5] = substrate: Nc1ncnc2c1ncn2[C@@H]1O[C@H](COP(=O)(O)OP(=O)(O)OP(=O)(O)O)[C@@H](O)[C@H]1O; assay: purified protein; assay type: biochemical, Methanothrix thermoacetophila; conditions: co-substrate Ru5P (2 mM), 10 mM MgCl2, 100 mM KCl, pH 8.0, 25 °C
purified protein [6] = substrate: O=C(CO)[C@H](O)[C@H](O)COP(=O)(O)O; assay: purified protein; assay type: biochemical, Methanothrix thermoacetophila; conditions: co-substrate ATP (2 mM), 10 mM MgCl2, 100 mM KCl, pH 8.0, 25 °C
purified protein [7] = substrate: Nc1ncnc2c1ncn2[C@@H]1O[C@H](COP(=O)(O)OP(=O)(O)OP(=O)(O)O)[C@@H](O)[C@H]1O; assay: purified protein; assay type: biochemical, Methanothrix soehngenii; conditions: co-substrate Ru5P (2 mM), 10 mM MgCl2, 100 mM KCl, pH 8.0, 25 °C
purified protein [8] = substrate: O=C(CO)[C@H](O)[C@H](O)COP(=O)(O)O; assay: purified protein; assay type: biochemical, Methanothrix soehngenii; conditions: co-substrate ATP (2 mM), 10 mM MgCl2, 100 mM KCl, pH 8.0, 25 °C

T1 sequence (Q2FSY4 entry or part of it): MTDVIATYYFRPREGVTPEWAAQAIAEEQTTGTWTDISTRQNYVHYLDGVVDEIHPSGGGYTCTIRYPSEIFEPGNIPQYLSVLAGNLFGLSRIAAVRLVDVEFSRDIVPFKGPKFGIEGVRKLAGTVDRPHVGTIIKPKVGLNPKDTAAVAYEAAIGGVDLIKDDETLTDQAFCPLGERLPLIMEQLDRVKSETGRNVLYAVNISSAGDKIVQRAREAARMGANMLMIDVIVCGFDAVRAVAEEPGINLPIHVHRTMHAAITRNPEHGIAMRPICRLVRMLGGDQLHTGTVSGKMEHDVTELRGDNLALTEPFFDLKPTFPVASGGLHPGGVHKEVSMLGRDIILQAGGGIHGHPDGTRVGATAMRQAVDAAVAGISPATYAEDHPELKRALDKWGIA

## Methanospirillum hungatei phosphoribulokinase (MhPRK) (enzyme)
[1]
  stoichiometry N: 2

## O=C(COP(=O)(O)O)[C@H](O)[C@H](O)COP(=O)(O)O [RuBP]
[2]
  coupled PGK / GAPDH carboxylase assay, NADH at 340 nm; turnover only: M. hungatei RuBisCO was found to have a specific activity for the carboxylase reaction

B1: MhPRK (M. hungatei PRK homologue) (Methanospirillum hungatei JF-1) (protein)
chain: MSQPENFREVIRHSPLVYLIGVAGDSGSGKSTFTRAISDIFGEELVSSITVDDYHLYDRKTRSEMGITPLLHTANNLKLLEENLMDLKAGRTIQKPVYLHDHGTFGEPELFSPTKFIIIEGLHPYATKSLRALYDYTIFVDPERDVKYDWKIRRDMKKRNYDKNEVLREILQREPDYFQYVFPQREVADAVIQISYSSYGKEEGEKRNVYRVMLSMPAQEYCFEDIELNIDLCDLFKKSSHDFSLSCISHTPDSRNMRALVVDGELMPDTIHKIERQIEFQTGISPINIFRGQEHITGTDLVRLILSWQIINGRIALSNHLDQ
notes: recombinant in E. coli C43 (DE3), pET-15b, His6 tag cleaved by thrombin; homodimer; residues up to 323
Purified protein [3]
  Km: 20.70 ± 1.70 µM
Purified protein [4]
  Km: 280 ± 50 µM

B2: Methanosaeta thermophila PRK homologue (Mtprk) (Methanothrix thermoacetophila PT) (protein)
chain: MRLLEKIRESGRVFVVAVAGDSGSGKTTFTRGIRRLLGEDVVSTFSMDDYHSLDRRQRKTLGITPLRPEANRFDLLAEHLAMLRRGLAIEKPVYDHTTGEIRGPVIFKPSPVIIVEGLHPFYTEELRKLSDFKIFVDPSRAVKRRWKLRRDVGERGYAPEDVMREILEREPDYKLYVDVQKVYAEMVIKIQDSRIPPEWTEIARGSAREKYSVRIIQQILDHPLDEVDLTIDLSRIMRLTEREFSIEFQRDDYYGKRVGVMTLDGEFPLTMIKDLERKLCDFLGRDVPSVTEGCQEDHGSYVNATEMTQLILIWRFLEKIANLAW
notes: recombinant in E. coli C43 (DE3), pET15b, His6 tag, purified as MhPRK (thrombin-cleaved)
Purified protein [5]
  Km: 5.66 ± 0.21 µM
Purified protein [6]
  Km: 230 ± 50 µM

B3: Methanosaeta concilii PRK homologue (Mcprk) (Methanothrix soehngenii GP6) (protein)
chain: MRSLKDRIRESGRVFVFGIAGDSGSGKTTISRGIRRILGEDMVATFSMDDYHSLDRRQRKERNITPLHPDANQFDLLAEHLEALRRNERIDKPVYDHRTGEISGTVPFGPAPVIIVEGLHPLYTERLRSQIDFKIFVDPSRSVKRLWKIRRDVGERGYETGQVMAEILQREPDYKLYVDIQKIYAQIVIKIQDSRFHPSLLDSQSTLDWYSVRLIMEIMEHPVSEVSMNIDLSKILRRSEHEFSIEFQRDDYYGKRVGIMTMDGEIHQSMISDLEKKLGESLGTDGMISDRREEYVNAIGLAQLILTWNCVEKLDYLLQEEGY
notes: as for B2
Purified protein [7]
  Km: 17.91 ± 2.02 µM
Purified protein [8]
  Km: 310 ± 80 µM

From publication PMC5241800, “A RuBisCO-mediated carbon metabolic pathway in methanogenic archaea” (Nature Communications, 2017)
